The target in assay [1] is human CD40 on cells (HEK293 stable transfectants, HEK-Blue CD40 cells, human B cells, monocytic cells, … (human, UniProt P25942 21-277)). In words: cell-based or functional assay.
For assay [2], the target named is T1, soluble form of the extracellular domain of human CD40 (Creative BioMart) (human, UniProt P25942 21-193).
T1 construct: Bought
Nature of the assay: SPR, Ab captured. The method, then:
CD40 binding kinetics was analyzed by surface plasmon resonance assay with a Biacore T200 instrument (Table 1-5). Briefly, a goat anti-mouse Fc antibody (Pierce) or goat anti-human Fc (Pierce) was immobilized on a CM5 sensor chip, followed by capture of the anti-CD40 antibodies on the test surface. Subsequently, the soluble form of the extracellular domain of human CD40 (Creative BioMart) or cynomolgus (cyno) CD40 (Creative BioMart) was injected, and the binding and dissociation were measured.
For orientation: Surface plasmon resonance follows binding to a sensor surface in real time, without labels.

A further assay has as its target T2, cynomolgus mesothelin (cynomolgus).
T2 construct: also called cynoMSLN; Cyno MSLN
In words: SPR.

A further assay has as its target T3, human mesothelin (human, UniProt Q13421 296-580, limits assumed).
T3 construct: also called Human MSLN
Nature of the assay: SPR.

Results on 14 molecules are retold here after patent publication US20180194862A1 (AbbVie / Abbott, published 2018).

T1 sequence (P25942 21-193 limits assumed): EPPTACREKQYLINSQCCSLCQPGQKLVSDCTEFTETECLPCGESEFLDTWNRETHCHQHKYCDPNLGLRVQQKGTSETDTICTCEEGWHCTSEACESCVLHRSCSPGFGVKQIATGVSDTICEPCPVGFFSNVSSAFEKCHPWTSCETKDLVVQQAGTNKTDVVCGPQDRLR
Sequence of human CD40 on cells (HEK293 stable transfectants, HEK-Blue CD40 cells, human B cells, monocytic cells, … (P25942 21-277 limits assumed): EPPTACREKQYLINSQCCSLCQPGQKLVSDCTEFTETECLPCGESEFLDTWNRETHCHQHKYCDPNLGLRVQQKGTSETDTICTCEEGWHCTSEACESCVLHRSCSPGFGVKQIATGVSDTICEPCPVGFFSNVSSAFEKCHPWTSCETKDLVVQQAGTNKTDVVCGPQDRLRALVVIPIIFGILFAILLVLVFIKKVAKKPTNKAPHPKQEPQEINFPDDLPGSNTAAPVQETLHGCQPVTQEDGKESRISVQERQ
T3 sequence (Q13421 other isoform, or with tags, fused parts or gaps limits assumed): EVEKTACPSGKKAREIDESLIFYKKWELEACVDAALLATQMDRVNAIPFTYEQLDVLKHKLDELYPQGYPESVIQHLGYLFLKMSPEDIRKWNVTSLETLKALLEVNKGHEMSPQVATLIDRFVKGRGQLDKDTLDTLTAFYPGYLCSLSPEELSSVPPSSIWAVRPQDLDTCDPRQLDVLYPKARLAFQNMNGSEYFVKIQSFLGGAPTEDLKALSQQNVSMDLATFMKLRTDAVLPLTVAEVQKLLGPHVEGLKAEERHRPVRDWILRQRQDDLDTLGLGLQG

B1: AD175.14.11 (antibody, V domains shown)
VH: EVQLQQSGPELVKPGASVKISCKASGYTFTDYYMNWVKQSHGKSLEWIGDINPNNGGTSYNQKFKGKATLTVDKSSSTAYMELRSLTSEDSAVYYCARRGGLGRGTYALDYWGQGTSVTVSS
VL: DIQMTQTTSSLSASLGDRVTISCRASQDISNYLNWYQQKPDGTVKPLIYYTSRLHLGVPSRFSGSGSGTDYSLTISNLEQEDIATYFCQQGNTLPLTFGAGTKLELK
notes: mouse hybridoma antibody; also called muAb3
As a reminder, the Kd is the equilibrium constant for the complex coming apart. Read a high Kd as lower affinity. Usually koff stands for the first-order rate constant of dissociation. The term kon denotes a measure of how fast the partners come together. High values mean fast association, low ones slow association. On to B1, for which, in assay [1], the “Monocyte activation (THP1-Xblue, OD655)” value amounted to 0.2 OD655 and the “moDC activation (IL-12p70)” value came to 0 pg/mL. In assay [2], this molecule returned a Kd of 170 nM, a dissociation rate constant (koff) of 0.012 s⁻¹ and an on-rate (kon) of 69000 M⁻¹ s⁻¹.

B2: AD163.7.2 (antibody, V domains shown)
VH: QVQLQQSGPELVKSGASVKISCKASGYTFTDYYINWVKQRPGQGLEWIGWIFPGSGSVYCNEQFKGQATLTVDRSSSTAYMLLSSLTSEDSAVYFCASSLGKFAYWGQGTLVTVSA
VL: DIVMTQSQKFMSTTVGDRVSITCKASQSVVTAVAWYQQKPGQSPKLLIYSASNRYTGVPDRFTGSGSGTDFALTIRTMQSEDLADYFCQQYSSYPYTFGGGTKLEIK
notes: mouse hybridoma antibody; also called muAb8
Take B2: in assay [1], the “Monocyte activation (THP1-Xblue, OD655)” value worked out at 0.13 OD655 and the “moDC activation (IL-12p70)” value amounted to 905 pg/mL. Besides, in assay [2], binding was characterised by a dissociation constant (Kd) of 4.1 nM, the koff came to 0.0042 s⁻¹ and the kon worked out at 1e+06 M⁻¹ s⁻¹.

B3: AD163.162.1 (antibody, V domains shown)
VH: QVQLQQPGAELVRPGSSVKLSCKASGYTFTSYWMHWVKQRPIQGLEWIGNIDPSNGETHYNQKFKDKATLTVDKSSSTAYMQLSSLTSEDSAVYYCARERIYYSGSTYDGYFDVWGTGTTVTVSS
VL: QIVLTQSPAIMSASPGEKVTMTCSASSSLSYMHWYQQKSGTSPKRWIYDTSKLASGVPARFSGSGSGTSYSLTISSMEAEDAATYYCQQWSSNPWTFGGGTKLEIK
notes: mouse hybridoma antibody; also called muAb6
In the case of B3, in assay [1], the “Monocyte activation (THP1-Xblue, OD655)” value came to 0.11 OD655 and the “moDC activation (IL-12p70)” value came out at 2160 pg/mL. In assay [2], the affinity, expressed as Kd, was 63 nM; the koff stood at 0.0048 s⁻¹; the kon was determined as 76000 M⁻¹ s⁻¹.

B4: AD163.27.12 (antibody, V domains shown)
VH: QVQLQQPGAELVRPGSSVKLSCKASGYTFTSYWMHWVKQRPIQGLEWIGNIDPSNGETHYNQKFKDKATLTVDKSSSTAYMQLSSLTSEDSAVYYCARERIYYSGSTYDGYFDVWGTGTTVTVSS
VL: QIVLTQSPAIMSASPGEKVTMTCSASSSLSYMHWYQQKSGTSPKRWIYDTSKLASGVPARFSGSGSGTSYSLTISSMEGEDGATYYCQQWSSNPWTFGGGTKLEIK
notes: mouse hybridoma antibody; also called muAb7
For the molecule B4, in assay [1], the “Monocyte activation (THP1-Xblue, OD655)” value amounted to 0.12 OD655 and the “moDC activation (IL-12p70)” value was found to be 1510 pg/mL. Moreover, in assay [2], the Kd was determined as 64 nM, the koff is 0.0048 s⁻¹ and the kon was found to be 75000 M⁻¹ s⁻¹.

B5: AD164.76.3 (antibody, V domains shown)
VH: DVQLQESGPGLVKPSQSLSLTCSVTGYSITSNYYWNWIRQFPGNKLEWMGYIRYDGSNNYNPSLKNRISITRDTSKNQFFLRLNSVTTEDTATYYCTRLDYWGQGTTLTVSS
VL: DAVMTQTPLSLPVSLGDQASISCRSSQSLENSNGNTFLNWFLQKPGQSPQLLIYRISNRFSGVPDRFSGSGSGTDFTLKISRVEAEDLGVYFCLQVTHVPFTFGSGTKLEIK
notes: mouse hybridoma antibody; also called muAb10; AD164.76.2
Consider B5, for which, in assay [1], the “Monocyte activation (THP1-Xblue, OD655)” value turned out to be 0.16 OD655 and the “moDC activation (IL-12p70)” value came out at 770 pg/mL. In assay [2], this molecule had an equilibrium dissociation constant (Kd) of 13 nM, a koff of 0.034 s⁻¹ and a kon of 2.6e+06 M⁻¹ s⁻¹.

B6: AD165.1.2 (antibody, V domains shown)
VH: DVQLQESGPGLVEPSQSLFLTCSVTGYSITTNYNWNWIRQFPGNKLEWMGYIRHDGTNNYNPSLKNRISIIRDTPKNQFFLKLNSVTTEDTAIYFCTRLDYWGQGTSVTVSS
VL: DAVMTQTPLSLPVSLGDQASISCRSSQSLENSYGNTFLNWFLQRPGQSPQLLIYRVSNRFCGVPDRFSGSGSGTDFTLKISRVEAEDLGIYFCLQVTHVPYTFGGGTKLEIK
notes: mouse hybridoma antibody; also called muAb5
B6: in assay [1], the “Monocyte activation (THP1-Xblue, OD655)” value was 0.14 OD655 and the “moDC activation (IL-12p70)” value was 720 pg/mL. Also, in assay [2], the Kd is 0.88 nM, the koff was determined as 0.002 s⁻¹ and the kon was determined as 2.3e+06 M⁻¹ s⁻¹.

B7: AD164.14.6 (antibody, V domains shown)
VH: DVQLQESGPGLVKPSQSLSLTCSVTGYSITSNYYWNWIRQFPGNKLEWMGYIRYDGSNNYNPSLKNRISITRDTSKNQFFLKLNSVTTEDTATYYCARLDYWGQGTTLTVSS
VL: DAVMTQTPLSLPVSLGDQASISCRSSQSLENTNGNTFLNWFLQKPGQSPQLLIYRVSNRFSGVPDRFSGSGSGTDFTLKISRVEAEDLGVYFCLQVTHVPFTFGSGTKLEIK
notes: mouse hybridoma antibody; also called muAb9
Regarding B7, in assay [1], the “Monocyte activation (THP1-Xblue, OD655)” value stood at 0.15 OD655 and the “moDC activation (IL-12p70)” value was determined as 878 pg/mL. Also, in assay [2], the dissociation constant (Kd) stood at 19 nM, the dissociation rate constant (koff) stood at 0.052 s⁻¹ and the kon amounted to 2.8e+06 M⁻¹ s⁻¹.

B8: AD166.4.4 (antibody, V domains shown)
VH: QVQLQQSGAELMKPGASAKLSCKATGYTFTGYWIQWVKQRPGHGLEWIGEILPGGDHTKYNEKFRGKATFTSDTSSNTVYMQLSSLTTEDSAIYYCARVGGDYWGQGTTLTVSS
VL: DVVMTQTPLSLPVSLGDQASISCRSSQSLVNSNENTYLHWYLQKPGQSPKLLIYKVFNRYSGVPDRFSGSGSGTDFTLKISRVEAEDLGVYFCFQSTHVPWTFGGGTKLEIK
notes: mouse hybridoma antibody; also called muAb2
For B8, in assay [1], the “Monocyte activation (THP1-Xblue, OD655)” value came to 0.24 OD655 and the “moDC activation (IL-12p70)” value was 0 pg/mL. In assay [2], this molecule came in with a Kd of 3.5 nM, a koff of 0.0096 s⁻¹ and a kon of 2.8e+06 M⁻¹ s⁻¹.

B9: AD163.9.3 (antibody, V domains shown)
VH: QVQLQQPGAELVKPGASVKMSCKASGYTFTSYWITWVKQRPGQGLEWIGEINPGSGSTNYNEKFKSKATLTVDTSSSTAYMQLSSLTSEDSAVYYCARNRGTGDYWGQGTTLTVSS
VL: DVVMTQTPLSLPVSLGDQASISCRSSQSLVHSYGNTYLHWYLQKPGQSPKFLIYKVSNRISGVPDRLSGSGSGTDFTLKISRVEPEDLGVYFCSQSTHVPYTFGGGTKLEIK
notes: mouse hybridoma antibody; also called muAb1
Take B9: in assay [1], the “Monocyte activation (THP1-Xblue, OD655)” value came out at 0.19 OD655 and the “moDC activation (IL-12p70)” value came to 2220 pg/mL. Moreover, in assay [2], the affinity, expressed as Kd, was 35 nM; the koff was determined as 0.016 s⁻¹; the kon turned out to be 470000 M⁻¹ s⁻¹.

B10: HuAM1 (antibody, V domains shown)
VH: EVQLVQSGAEVKKPGASVKVSCKASGDTFKRYYVQWVRQAPGQGLEWMGIINPSGVSTTYAQKFQGRVTMTRDTSTSTVYMELSSLRSEDTAVYYCAESRGSGYNYFAMDVWGQGTLVTVSS
VL: SYELTQPPSVSVSPGQTASITCSGDKLGDKYASWYQQKPGQSPVLVIYQDNRRPSGIPERFSGSNSGNTATLTISGTQAMDEADYYCQAWDSDTYVFGTGTKVTVL
notes: fully human antibody
In the assay with cynomolgus mesothelin, B10 came in with a Kd of 11 nM, a koff of 0.0002 s⁻¹ and a kon of 18000 M⁻¹ s⁻¹. In the assay with human mesothelin, this molecule gave a Kd of 2.7 nM, a koff of 5.1e-05 s⁻¹ and a kon of 19000 M⁻¹ s⁻¹.

B11: HuAM17 (antibody, V domains shown)
VH: EVQLVQSGAEVKKPGASVKVSCKASGDTFNRYYVQWVRQAPGQGLEWMGIINPSGVSTTYAQKFQGRVTMTRDTSTSTVYMELSSLRSEDTAVYYCAESRVPGYNIFAMDVWGQGTLVTVSS
VL: SYELTQPPSVSVSPGQTASITCSGDKLGDKYASWYQQKPGQSPVLVIYQDNRRPSGIPERFSGSNSGNTATLTISGTQAMDEADYYCQAWDSDTYVFGTGTKVTVL
notes: fully human antibody
As to B11, in the assay with cynomolgus mesothelin, the equilibrium dissociation constant (Kd) was found to be 3.4 nM, the off-rate (koff) came out at 9.1e-05 s⁻¹ and the association rate constant (kon) worked out at 27000 M⁻¹ s⁻¹. In the assay with human mesothelin, this molecule had a Kd of 0.53 nM, a koff of 1.5e-05 s⁻¹ and a kon of 29000 M⁻¹ s⁻¹.

B12: HuAM7 (antibody, V domains shown)
VH: EVQLVQSGAEVKKPGASVKVSCKASGDTFNRYYVHWVRQAPGQGLEWMGIINPSGVSTTYAQKFQGRVTMTRDTSTSTVYMELSSLRSEDTAVYYCAEVRGSGYNYFGMDVWGQGTLVTVSS
VL: SYELTQPPSVSVSPGQTASITCSGDKLGDKYASWYQQKPGQSPVLVIYQDNRRPSGIPERFSGSNSGNTATLTISGTQAMDEADYYCQAWDSDTYVFGTGTKVTVL
notes: fully human antibody
In the assay with cynomolgus mesothelin, B12 showed a Kd of 4.9 nM, a dissociation rate constant (koff) of 0.00011 s⁻¹ and a kon of 22000 M⁻¹ s⁻¹. In the assay with human mesothelin, the Kd is no more than 0.39 nM, the koff is no more than 1e-05 s⁻¹ and the kon turned out to be 26000 M⁻¹ s⁻¹.

B13: HuAM18 (antibody, V domains shown)
VH: EVQLVQSGAEVKKPGASVKVSCKASGDTFNRYYVHWVRQAPGQGLEWMGIINPSGVSTTYAQKFQGRVTMTRDTSTSTVYMELSSLRSEDTAVYYCAETRGSGYNYFGMDVWGQGTLVTVSS
VL: SYELTQPPSVSVSPGQTASITCSGDKLGDKYASWYQQKPGQSPVLVIYQDNRRPSGIPERFSGSNSGNTATLTISGTQAMDEADYYCQAWDSDTYVFGTGTKVTVL
notes: fully human antibody
In the assay with cynomolgus mesothelin, B13 had a Kd of 9.3 nM, a koff of 0.00013 s⁻¹ and a kon of 14000 M⁻¹ s⁻¹. Further, in the assay with human mesothelin, the Kd is no more than 0.66 nM, the dissociation rate constant (koff) was no more than 1e-05 s⁻¹ and the kon was 16000 M⁻¹ s⁻¹.

B14: HuAM6 (antibody, V domains shown)
VH: EVQLVQSGAEVKKPGASVKVSCKASGDTFNRYYVHWVRQAPGQGLEWMGIINPSGVSTTYAQKFQGRVTMTRDTSTSTVYMELSSLRSEDTAVYYCAESRVPGYNNFAMDVWGQGTLVTVSS
VL: SYELTQPPSVSVSPGQTASITCSGDKLGDKYASWYQQKPGQSPVLVIYQDNRRPSGIPERFSGSNSGNTATLTISGTQAMDEADYYCQAWDSDTYVFGTGTKVTVL
notes: fully human antibody
Consider B14, for which, in the assay with cynomolgus mesothelin, the Kd is 3.9 nM, the off-rate constant (koff) worked out at 8.5e-05 s⁻¹ and the kon worked out at 22000 M⁻¹ s⁻¹. In the assay with human mesothelin, this molecule gave a Kd of 1 nM, a koff of 2.4e-05 s⁻¹ and a kon of 24000 M⁻¹ s⁻¹.
